Results from US11407840B2, “Antibodies to M(H)DM2/4 and their use in diagnosing and treating cancer” (NomoCan Pharmaceuticals LLC, priority 2017, dated 2022).

Assays:
[1] = system: plasma membrane M(H)DM2/4; assay: Plasma membrane M(H)DM2/4 after chemotherapeutic agents in vitro; format: cell-based; settings: data not shown
[2] = system: human pancreatic cancer MIA PaCa-2 cells; assay: Cell-ELISA, intact cells; format: binding
Procedure: (§1) Cell-ELISA Methodology: 8,000-10,000 cells/well of a 96-well microplate were grown overnight. The next day, unbound cells were washed off with sterile 1× PBS. The cells in each well were fixed with freshly prepared 4% buffered paraformaldehyde (pH 7.2) for 1 hour followed by 3 washes with 1× PBS. The wells were then blocked with 5% BSA in PBS (100 ? /well) for 2 hours at room temperature. Microplate wells were then washed 5 times with 300 ? of ice cold 1× PBS. MAbs NMC-103, NMC-204 or NMC-303 at 1 μg/mL in 1% BSA/PBS were then incubated with various cancer or normal untransformed cells for 2 hours at room temperature. Wells were then washed with 300 ? of ice-cold 1× PBS for 5 times and corresponding secondary antibody HRP-GaM F(ab′)2 diluted 1:2500 or 1:5000 in PBS with 1% BSA were added at 100 ? /well for 1 hour at room temperature followed by washing 5 times with 300 ? of ice-cold 1× PBS. TMB Substrate Solution (1-StepTM Ultra TMB-ELISA, ThermoFisher, Cat. No. 34028) was then added at 50 ? ? to each microplate well and incubated at room temperature for 30 minutes. The reaction was stopped by addition of 50 μL, of stop solution (ThermoFisher, Cat. No. SSO4) to each well and absorbance of each well was measured at OD450 nm. The absorbance value of each experimental well was corrected for the absorbance value obtained from wells treated with isotype-identical mAbs included in each experiment. The results are thus expressed as “relative binding”.

[3] = system: human, murine, rabbit protein; design: key: H—binds to human protein; M—binds to murine protein; R—binds to rabbit protein; settings: Table 10; cited from earlier work
[4] = system: normal human peripheral blood mononuclear cells (PBMCs); assay: Cell-ELISA, intact normal cells; format: binding; settings: freshly isolated PBMCs; FIG. 6
Procedure: as §1

[5] = target: NMC-P3 peptide (SEQ ID NO:3), amino acids 475-491 of HDM2 (Homo sapiens, UniProt Q00987); assay: Peptide-ELISA, NMC-P3 peptide; format: binding; settings: 5 μg/ml peptide dried on plate; OD 450 nm
Procedure: Peptide-ELISA Methodology: 5 μg/ml of NMC-P1, NMC-P2 or NMC-P3 peptide antigen was dried onto a 96-well ELISA plate overnight. Plates were then blocked with 5% BSA in 1× phosphate-buffered saline (PBS) (100 ? /well) for 2 hours at room temperature. Microplate wells were then washed 5 times with 300 ? of ice cold 1× PBS. Appropriate dilutions of monoclonal antibodies NMC-103, NMC-204 or NMC-303 in 1% bovine serum albumin (BSA) in PBS solution were then incubated with their corresponding peptides (NMC-P1, NMC-P2 or NMC-P3, respectively) at room temperature. After 2 hours, wells were washed 5 times with 300 ? ? ice-cold PBS/well and 100 ? secondary antibody (HRP-labeled Goat anti-Mouse F(ab′)2 H&L cross-adsorbed secondary antibody (HRP-GaM F(ab′)2), ThermoFisher, Cat. No. A24524) diluted 1:2500 to 1:5000 in PBS-1% BSA solution were added and the incubation continued at room temperature. After 1 hour, the wells were washed again 5 times with 200 ? of ice-cold PBS and 50 μiL of the TMB Substrate Solution (1-StepTM Ultra TMB-ELISA, ThermoFisher, Cat. No. 34028) were added to each well and color was allowed to develop for 30 minutes at room temperature. The reaction was stopped by addition of 50 μ ? ? of stop solution (ThermoFisher, Cat. No. SSO4) to each well and absorbance of each well was read immediately for optical density (OD) at 450 nm.

[6] = system: human breast cancer MCF-7 cells; assay: Cell-ELISA, intact cells; format: binding; settings: mAb 1 μg/mL, FIGS. 3-5
Procedure: as §1

[7] = target: T1, recombinant full-length HDM2 protein (GST tagged) (Homo sapiens, UniProt Q00987); assay: Western blot (immunoblot); format: binding; settings: 1 μg/well protein; band at approximately 83 kD; FIG. 2
T1 construct: reacted with the recombinant full-length HDM2 protein; purchased Abcam ab188727
Procedure: Western Blot: As for immunoblots, 1 μg/well of recombinant FIDM2 protein (GST tagged, Abeam, Cat. No. ab188727) was separated on 8-16% sodium dodecyl sulfate (SDS) polyacrylamide gel and proteins were then transferred to polyvinylidene difluoride (PVDF) membrane. The membrane was blocked with 5% milk followed by incubation with monoclonal antibody NMC-103, NMC-204 or NMC-303 at 1 μg/πι ? in 1% milk in PBS for 2 hours. The membrane was then washed×3 times (10 minutes each) and incubated for 1 hour with corresponding HRP-conjugated secondary antibody (Goat anti-Mouse IgG (H&L), F(ab′)2 Frag Cross-adsorbed HRP (HRP-GaM F(ab′)2), ThermoFisher, Cat. No. A24524) diluted 1:5000 in 1% BSA-PBS. The membrane was then washed×3 times and incubated with Pierce ECL Plus Western Blotting Substrate (ThermoFisher, Cat. No. #32132) for 10 min before developing on a LICOR Scanner.

[8] = system: CT-26 (subcutaneous tumors); assay: CT-26 syngeneic mouse model of colon cancer; format: in vivo, mouse (BALB/c); settings: day 24 post tumor inoculation; 10 mg/kg two times a week for 3 weeks; n=4; FIG. 32A
Procedure: Utilizing another syngeneic mouse model of colon cancer, CT-26 (Selby et al., 2016, PLoS One. 9; 11(9): e0161779), the anti-tumor efficacy of a chimeric version of monoclonal antibody NMC-303 was assessed. To create the chimeric version of monoclonal antibody NMC-303, isotype class-switching was performed on a mouse NMC-303 (having heavy variable regions of SEQ ID NO:40 and light chain variable regions of SEQ ID NO:41) to convert it from a mouse IgM to a chimeric IgG1. The mouse Heavy and Light chain variable regions (SEQ ID NO:40 and SEQ ID NO:41, respectively) were cloned into a human Ig gamma-1 chain and human Ig kappa chain as constant region. A total of eight (8) BALB/c mice were injected subcutaneously with CT-26 (800,000 cells/mouse). Mice were then divided into two groups (n=4) that received: A) control antibody (10 mg/kg) or B) the chimeric version of monoclonal antibody NMC-303 (10 mg/kg) two times a week for 3 weeks. […] Due to the human constant region of the chimeric version of the monoclonal antibody NMC-303, the anti-tumor efficacy of this antibody might be improved if tested in mouse models with human immune background. The above in vivo results further support the anti-tumor efficacy of antibodies raised against NMC-P3 immunogen that target the extracellularly accessible epitopes of the M(H)DM2/4 on cancer cells.

T1 sequence (Q00987 whole entry): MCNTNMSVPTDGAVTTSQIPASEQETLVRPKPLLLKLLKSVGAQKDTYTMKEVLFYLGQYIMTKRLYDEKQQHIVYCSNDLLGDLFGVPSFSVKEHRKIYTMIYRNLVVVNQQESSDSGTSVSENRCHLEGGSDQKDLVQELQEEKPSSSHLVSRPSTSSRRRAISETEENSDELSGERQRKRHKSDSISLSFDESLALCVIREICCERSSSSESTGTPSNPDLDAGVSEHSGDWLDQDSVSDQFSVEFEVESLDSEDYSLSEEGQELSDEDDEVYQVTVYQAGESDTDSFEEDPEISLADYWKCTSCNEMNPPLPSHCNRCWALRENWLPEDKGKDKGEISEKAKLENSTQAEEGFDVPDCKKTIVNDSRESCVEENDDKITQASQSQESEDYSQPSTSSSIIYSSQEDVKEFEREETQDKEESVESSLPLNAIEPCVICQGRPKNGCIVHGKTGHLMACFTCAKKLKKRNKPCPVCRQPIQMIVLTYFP

Nc1ccn([C@@H]2O[C@H](CO)[C@@H](O)C2(F)F)c(=O)n1 [Gemcitabine]
plasma membrane M(H)DM2/4 of treated cells [1]: increase

CC(=O)O[C@H]1C(=O)[C@@]2(C)[C@H]([C@H](OC(=O)c3ccccc3)[C@]3(O)C[C@H](OC(=O)[C@H](O)[C@@H](NC(=O)c4ccccc4)c4ccccc4)C(C)=C1C3(C)C)[C@]1(OC(C)=O)CO[C@@H]1C[C@@H]2O [Paclitaxel]
plasma membrane M(H)DM2/4 of treated cells [1]: increase

Cytochrome C [reference compound]
binding to intact, EDTA-released MiaPaCa-2 cells, cell-ELISA ([2]; EDTA 10 mmols, pH 7.2, 5 min, 37° C., FIG. 10): only minimal binding | Species Reactivity [3]: H

B1: NMC-303: mouse monoclonal antibody, IgM isotype, binds NMC-P3 (SEQ ID NO:3); VH SEQ ID NO:40, VL SEQ ID NO:41 (antibody, V domains shown)
VH: QVQLQQPGAELVKPGASVKLSCKASGYTFTSYYMYWVKQRPGQGLEWIGGINPRNGGTNFNEKFKNKATLTADKSSTTAYMQLSSLTSEDSAVYYCTRSGYYAMDYWGQGTSVTVSS
VL: DIQMTQTTSSLSASLGDRVTISCRASQDISNFLNWYQQKPDGTVKLLIYYTSRLHSGVPSRFSGSGSGTDYSLTISNLEQEDIATYFCQQGNTLPRTFGGGTKLEIK
modifications: mAb NMC-303 Heavy Chain Variable Region; mAb NMC-303 Light Chain Variable Region
binding to intact normal human PBMCs, cell-ELISA [4]: virtually no binding | binding to NMC-P3 peptide (peptide-ELISA) [5]: bound | binding to intact MIA PaCa-2 cells when competed with NMC-P3 peptide ([2]; FIG. 8C): competed | relative binding (reactivity) to intact cells, cell-ELISA ([2]; MIA PaCa-2, mAb 1 μg/mL, FIGS. 3-5): reactivity | relative binding (reactivity) to intact cells, cell-ELISA [6]: reactivity | reactivity with recombinant full-length HDM2-GST protein in immunoblot [7]: reacted

B2: chimeric version of monoclonal antibody NMC-303: chimeric IgG1: mouse NMC-303 variable regions cloned into human Ig gamma-1 chain and human Ig kappa chain constant regions (antibody, V domains shown)
VH: B1 VH
VL: B1 VL
modifications: human IgG1 and kappa constant regions lack entries; mAb NMC-303 Heavy Chain Variable Region; mAb NMC-303 Light Chain Variable Region
notes: chimeric IgG1: mouse NMC-303 variable regions cloned into human Ig gamma-1 chain and human Ig kappa chain constant regions
average tumor size [8]: 726 mm^3
